Laboratory results as given in the DeepSol protein solubility set.

Assay: soluble on expression in E. coli; label from the status in PepcDB or PDB records

Sequence | soluble on expression in E. coli
MSLTSPLAYSYTHTGTEATTGYFSCEPPQDMTMEQALAWLAVHPMDDFMHRHLLRRLGEMSPEELAKLGPTLQASPVLEALFCELCALAPEGSPLRATLTEILEGLSTTSEASPAAIAERLGAYTPLPYIGWAALPDRELHQAWCRLFSDNIQNHRMLPHPEDNDLAPLYADEEPATRPEPPITAVHARLAAAPGTPWSRPPAHETAQKALEVLVENDIIAGVEMRHEASLSPIALLRRWRLDLGVRNGGLAYTLRGEATTYGRGLSLADARASYAMEMVERASSYANVGPEGILGLTRPQPLRKARHSELVAEGLAVLDPNAIPLEVPYRDQPIHWLTGHASEANGNAPTLVPAQMVYLFCNLDEVALFTSSSSTGLASGNTLAEAKVAALTEILERDAEATTPYDRARCFRPATDDPLLRSLLEDYAARGIQIQMQDMTTEWGIPCYTCFVMSSRGKLARGTGAGLDGRRAAISALTETPYPYPRGGASGPGLRGLPERKLEDLPSFTLESPERNLALLEETLASTGHHPVYVELTRADLGLPVVKALIPGLELTADFDDCTRISRRLYRNYLRMGYDEGHHHHHH | soluble
MRRLVLLLALCFSCSFAQYGLYGSGYNGYGGYGSGYGTGYGMGYGMGYPMNPYMNQVYGYGSNPMMSGGGGMYGAGGCMDLSPQCSVWASTGQCSTNPMMMRQTCAMSCGTCSTGVGALGSMGSYNPFGGYGGMGYPQAGLLDPLAQFIGRSIYETGILRQPTPSSSSKSIGILTKAKSEQLPSR | not soluble
MKAVIAKNEEQLKDAFYVREEVFVKEQNVPAEEEIDELENESEHIVVYDGEKPVGAGRWRMKDGYGKLERICVLKSHRSAGVGGIIMKALEKAAADGGASGFILNAQTQAVPFYKKHGYRVLSEKEFLDAGIPHLQMMKD | soluble
MGSDKIHHHHHHMTETTSSPQHYLGWDIGGANLKVALVRPDGIAVKVIQVPCPLWQGMDRLDAAIDLALAELGGPGGAKHSVTMTGELADIFPDRASGVWEIALRTHAMLGSELCFFAGASGFVPLAQVQQHANAIASANWLASAAFVATKLQQGLFIDIGSTTADFVLLHDGRPVNRGQTDAERMQHEELVYTGVARTSLMALASRIPFAGQWQNVAAEHFATTADVYRLTGELDPAEDMAATADGAGKSMDETCRRLARMVGRDADDADKTAWVHLAQAFRQQQLAILRDAVLCNLSRNVVRPGAPFIGAGAGVFLVRELAQQLGHEFLAASSLLKAESDQARNWAGVCLPAYAVANLGITANSQERAC | not soluble
MTTDYDFWLFDLDGTLVDIEPAYPRKVMGAVGDRLGVEFTDRERDALWYGFGGTRSRTLAERNVDQQEFWRLFHEEEDPIARAEATYLYDDAEQFLATLDTPVGLVTHCQQYLTEPVLDHLDITDWFETVVCCDDDIGWKPDPKPVELAMREMDVWYNGHHGVLAGDNPSDIGAAWNAGLDGVHVGRRSPTETGRCVRGDRRVASLLDLSSSQGR | not soluble
MGSDKIHHHHHHMKLYKLLILDIDGTLRDEVYGIPESAKHAIRLCQKNHCSVVICTGRSMGTIQDDVLSLGVDGYIAGGGNYIQYHGELLYNQSFNQRLIKEVVCLLKKREVAFSIESQEKVFMNQKAKEIFETMNQLKGTNSCINKQHIQEKITYENNIEEYKSQDIHKICLWSNEKVFDEVKDILQDKMELAQRDISSQYYEIIQKDFHKGKAIKRLQERLGVTQKETICFGDGQNDIVMFQASDVTIAMKNSHQQLKDIATSICEDIFDNGIYKELKRRNII | not soluble
VARAVGKENKSEFGVPSVVEMRPPALCEGCGHRDMYITLTEVLKEEYPSHKVFSDIGCYTLGANAPFNAINSCVDMGASITMAKGAADGGLHPSVAVIGDSTFTHSGMTGLLDCVNENANVVIVISDNETTAMTGGQDSAGTGRIESICIGLGVDPAHIRVVVPLKKNHEEMRQIIREEIEYNGVSVIIPRRECIQTLARKKRSK | not soluble
SGVPVYICSSLKPDALAEAAEHQADGSFFVPRAKGLRTQKQWLAFYSESRGSVYVDEGAEHALSEQGKSLLMSGIAGIEGHFSRMDTVTVYSKATKQPLGKGRVLFGSAAAEDLLKSRKAKGVFIHRDDWISITPEIRLLLTEF | not soluble
GSRRASVGSMSKKPPNRPGITFEIGARLEALDYLQKWYPSRIEKIDYEEGKMLVHFERWSHRYDEWIYWDSNRLRPLERPALR | soluble
MTNYIYPKFGYLRSKEQAEGIVKRHPIVVIGAGPVGLTAALDCAARGQPVVLLDDNDTVSIGSRAVCYAKRPLEIWNRLDCADPMVERGVSWNVGKVFFRDELSYQFDLLPESDHEWPAMINLQQYHLEEILVARCRASPLIDLRWKHRLISLKQAADHAELAVETPDGIFTMEAQWVIACDGANSDTRKMVGAEFKGQYFEDRFLIADVAMKADFPTERWFWFDPPFHPAQSVLLHRQADDIWRIDFQLGWDADPDEEKRPERVIPRIKAMLGEDTEFELEWVSIYQFACRRIDKFRHGRVLFAGDAAHQVSPFGARGANTGVQDIDNLAWKLAMVLRGEAPEALLDSYHDERAYAADDNILNSTRATDFITPKTKVSRHFRDAVLELAQHHGFARPLVNSGRLSTPTPYVTSPLNTFDDSLLDGEMRPGTNAADAPVTIGGKPDWFLNCLGAGFVVVTFDQAVDNERIEVGPIAARVIRVGRDIDDPRGVLASRYGTSTGTTYLFRPDQYVAARWAGFDEGKISAALLRATAQDAVRQKEIAALEHHHHHH | not soluble
MADDLNAGPKANREFKNSVFTLLFNEEEAIRDISGAVGAMLGKEISPNTPIKKTTLQNALLGGKLNDLSFVLDDKLIVLIEHQSTINKNMPLRMLHYICEIYNHLYEKKDLYRKKKILIPKPVFIVLYNGEEDIKDFEEYLLSDLFKDFDISKEQPYLELRVQVRNINKGHSAEIVKQSPLLLDYVAFVEEVREVNKEEGMTPELAMEKAIENCIKKGILTVFLTRHKEEVMKMLVAEWDYDLDREVARDEGREEGREEGRTEETANNIKDLYRIGVSIETIAKAFGLSEHDVKDILGL | soluble
MDYEILFSDETMNYADAGTYCQSRGMALVSSAMRDSTMVKAILAFTEVKGHDYWVGADNLQDGAYNFLWNDGVSLPTDSDLWSPNEPSNPQSWQLCVQIWSKYNLLDDVGCGGARRVICEKELDD | soluble
MSLTPATQPLINAEPAVAAQTEQNPQVGQVMPGVQGADAPVVAQNGPSRDVKLTFAQIAPPPGSMVLRGINPNGSIEFGMRSDEVVTKAMLNLEYTPSPSLLPVQSQLKVYLNDELMGVLPVTKEQLGKKTLAQMPINPLFITDFNRVRLEFVGHYQDVCENPASTTLWLDVGRSSGLDLTYQTLNVKNDLSHFPVPFFDPRDNRTNTLPMVFAGAPDVGLQQASAIVASWFGSRSGWRGQNFPVLYNQLPDRNAIVFATNDKRPDFLRDHPAVKAPVIEMINHPQNPYVKLLVVFGRDDKDLLQAAKGIAQGNILFRGESVVVNEVKPLLPRKPYDAPNWVRTDRPVTFGELKTYEEQLQSSGLEPAAINVSLNLPPDLYLMRSTGIDMDINYRYTMPPVKDSSRMDISLNNQFLQSFNLSSKQEANRLLLRIPVLQGLLDGKTDVSIPALKLGATNQLRFDFEYMNPMPGGSVDNCITFQPVQNHVVIGDDSTIDFSKYYHFIPMPDLRAFANAGFPFSRMADLSQTITVMPKTPNEAQMETLLNTVGFIGAQTGFPAINLTVTDDGSTIQGKDADIMIIGGIPDKLKDDKQIDLLVQATESWVKTPMRQTPFPGIVPDESDRAAETQSTLTSSGAMAAVIGFQSPYNDQRSVIALLADSPRGYEMLNDAVNDSGKRATMFGSVAVIRESGINSLRVGDVYYVGHLPWFERLWYALANHPILEGHHHHHH | soluble
MGSDKIHHHHHHMAGEDRDMETETETVCPGNTAGRFAAGEDPAKRDQILAGAWRVFKLKGFDAASMNDITREAGVSKGTIYVYFSNKEDLFAALVDHHRQEFATSMRNILAGTEEVRKGLEQFGKAFANKMICSDMIPAMRSVIGVIDRMPKLAQRFFIAAPNNVRTVLQDFIEHHIALGHLKVDDVELAARQYIELSTGTFFKLRLFGEIDGPVPEEELDRVIASAIKVFMAAYGTDKV | not soluble
MGSDKIHHHHHHMKDSDILMLAEEGESTSEASARKKALLLGRQLGLASEQEYRPANASIAERAQHRARKLSSQYQANVETIFALALSYTPSDVTGVDLDPDWSHQFFLMAEQIHNRRMQDLWARILSSEIVNPGNFSLRTLALLKQLTHREAQILEKALGMAAKVNSEQRLKLISGYRLSGGIGQYFRKTTSVNLGLSQFGLPYSSILTLVDAGILHSSEFETGLLNNKTPIQFALQGIQMKLTPKSGNLLFSYYRFTPIGDELAQLVQPKPDQEYLKALQLLFAKDFKIE | not soluble
MAHHHHHHMRRGGTVVFQRHRVSGGISRANEMSAFARLRGGQQKTETDWVPTLLLSGETPPPIARPAETAAFFLASFDPFVFSYCMFDFPTILHHAGELSEHELLDYPGSMLMSPRSLFLQPTAHLRFGSERQQRMAVVLQSLLDRHDESERSPVPCARALGVQCPLFVPFLRGVCLCVETQHPFAPQAAYVFEELLASGFVSSTLYLDGTYVDRNRTLAQIVQLAAREFGSESALFTGLLLDEEHASPPETIAVGRLVAQTLAAADRRRLDWALKTRGAVRQRLVPQHGWTLGPSPSLLSTAQQ | soluble
MAAEGDFLMRYRAVSNKLKKRFLRKPNVAEASEQFGQLAKELKQQDCPQYAAFCNLAMARCEQTLFNAPGEALALTDAARLFLASEQETRALRAPGFDENMQAAMNCYSFAIKVYIEMNQPVMAARLSLELGNALKEMNRPGEAIIHFQRAAELQIQMPIEALLSLWEMASCKILTRDYDGALAVLSEMQHMCQERGLQLPGTNTPVGAFMDIIAKCEISRVLLLMLLEPPPQKLLPEHAQTLERYAWESFDSHSQMACQEKDTESLKALQTELW | not soluble
MGSDKIHHHHHHMNAPAHDNGRLALMLNELRLPTIGRLWPEFAERSDKEGWPATRLLGALLEHELAERAKRRIERHRTESHLDPTKTLATFDFGMVPMVSKAHVTALATGESWLEKGATILLFGPPGAGKSHLGSAIGHALIDAGYRVLFTRTSELVQKLQAARQSLQLPSALAKLDRFDLIILDDLSYARKDQAETSVLFELIAERYERKSLLITANQPFSGWNDVFPDPGMTVAAIDRLVHHSTIFELNVESYRRRKASDKQSARRRQLPDDNYEGGATIMN | not soluble
MSLDSRKPGHRPVTMRDVAKAAGVSRMTVSRALKKDSPISSETRERILKVVKDMNYVPDQVAGSLTTKRSGFVGLLLPSLNNLHFAQTAQSLTDVLEQGGLQLLLGYTAYSPEREEQLVETMLRRRPEAMVLSYDGHTEQTIRLLQRASIPIVEIWEKPAHPIGHTVGFSNERAAYDMTNALLARGFRKIVFLGEKDDDWTRGAARRAGFKRAMREAGLNPDQEIRLGAPPLSIEDGVAAAELILQEYPDTDCIFCVSDMPAFGLLSRLKSIGVAVPEQVSVVGFGNFEVSRFASPEISTVRVDPIAIGRETGSLILRLLDPKQRSPQTAQHITLPPVLEFRPSLKNEGHHHHHH | soluble
MGHHHHHHSHQVLTTSRKPGRKTRRFAKVLARFFNWKYVNRGKLSLEDLAGIAERFWIISEVKGNPAILNLYERGEKTLEVSFTLSNVNKIKMDDSPAVFKGKAPIDPLVFGAIPQTKAGLKLTRKVEFRKKVVVKGDEWLFFYDDEMLFKLRILKISRSS | soluble
MGSDKIHHHHHHMKDNKINILFLSWRDIKCPKSGGAEVFTHEMLKRLDFNKYDITHFSPTFEGAKEKEIIDNVTYIRRGNILSVISEAKKYYKTNKDEIDFVVDQCNTHKFFTPLWVPKKKRIFFIHQLTREIWHINARFPISTLGYLFETPTLRLYKNDYTITVSDSTKKDLIDIGFDRDKVTIFPEGINFKPWDKDSLLKEKDNIFGYIGRFVNYKGIDAAVKAYCILKKDYPNSKLWIIGKKKDDYIEKVLLPILKENNITYGNRGQNRDITFWGFVSEKEKLSLMSKMKALLFPSIREGFGLTVIEAGAVGTPTVVYNSKGLVDAVDKGKAGYLCEENTPENLYYFMKNILENENEYGLKRKNAHDFSLKFNWDSTSKYFDDFINKLNEKSLKK | not soluble
